Data set [1] can be described thus: PET hydrolysis, aromatic products released after 48 h (umol product/mg enzyme); higher = more PET depolymerization activity. To be noted: substrate: cryPow. Here is the method:
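HTP-purified, SUMO-cleaved, tagless PET hydrolase candidates (5 ug, 1.43 mg/g PET) were incubated 48 h without shaking with 3.5 mg amorphous PET film (aFilm) or crystalline PET powder (cryPow) in 0.5 mL buffer: NaCitrate pH 4.5/5.5, NaPhosphate pH 6.5/7.5, glycine pH 8.5. Incubation was at 40 or 60 C. Aromatic products (TPA, MHET, BHET) in the supernatant were quantified by UV absorbance at 260/280 nm relative to buffer blanks and expressed per mg enzyme. LCC-ICCG was the positive control on every plate.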

A short description of data set [2]: purified protein yield per well (BCA); higher = higher soluble expression. A digest of the protocol:
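Expression was done in E. coli C41(DE3), using 2 mL autoinduction cultures with 100 µg/mL kanamycin incubated at 37 °C for 2 h and at 18 °C for 40 h. Protein was purified on Ni-charged magnetic beads and released by SUMO protease cleavage. Yield of purified protein per well was measured with the Pierce Rapid Gold BCA kit; values below 25 ug (0.1 mg/mL) are below detection.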

As to “CATAGSALVSAPSLSGDGSYEVQTYTDFPDVPEFGAATIYYPVGASEPMGGVAIAPGFTEEQRHIAWWGPRLASHGYAVLVLDTNDRRERPDARADALIAGVTLLRAEGRRRGSPLFGRIDAAKMAIMGHSMGGGGALLAADEHSDLIRAAIPFTPWEPETDLRGISAPTLVLAGAADRVAEVEGHAWRHFSMIPESTPKVYMEIAGGDHYIADTTRGMDLATVGRYAIAWLKLYVDGDEQYRDLIYGEIPPADAAKFSRYVVNP [TEP157]”, the PET hydrolysis in data set [1] (40 °C, pH 4.5) is less than 3; in data set [1] (40 °C, pH 5.5), less than 3; in data set [1] (40 °C, pH 6.5) it was less than 3; in data set [1] (40 °C, pH 7.5) it was less than 3; in data set [1] (60 °C, pH 4.5) it was less than 3; in data set [1] (60 °C, pH 5.5), less than 3. Moreover, the PET hydrolysis in data set [1] (60 °C, pH 6.5) was less than 3; in data set [1] (60 °C, pH 7.5) it was less than 3. Besides, the “purified protein yield per well” value in data set [2] worked out at 80.2 µg.
With “ADNPYERGPAPTNASIEAVRGPYAVSQATVSSLAVTGFGGGTIYYPTTTSDGTFGAVAISPGYTGTQSSIAWLGPRLASQGFVVFTIDTNTTLDQPDSRGRQLLAALDYLTRVSPLRTRVDSTRLGVMGHSMGGGGSLEAAKSRPSLQAAIPLTPWNLDKTWPEIQTPTLIVGADGDSIAPVSSHAEPFYENLPSSLDRAYLELNGASHFAPNSSNTTIAKYSISWLKRFIDNDTRYEQFLCPLPRPSLTIEEYRGNCPHQS [TEP188]”, the PET hydrolysis in data set [1] (40 °C, pH 4.5) is less than 3; in data set [1] (40 °C, pH 5.5), less than 3; in data set [1] (40 °C, pH 6.5), less than 3; in data set [1] (40 °C, pH 7.5), less than 3; in data set [1] (60 °C, pH 4.5), less than 3; in data set [1] (60 °C, pH 5.5), less than 3. Also, the PET hydrolysis was less than 3 in data set [1] (60 °C, pH 6.5) and less than 3 in data set [1] (60 °C, pH 7.5). In addition, the “purified protein yield per well” value in data set [2] is 72.2 µg.
As to “QAPTRESLGAQGPYQVAYYSNFPAVQEFTAGTIYFPANKAQTFGAVAISPGFAERQENMSWWGRHLASHGFAVLTLDTNELRDDPAIRAEALMAALRVLSGESEREGSPLRGKIDTNRMAIMGHSMGGGGTLLAANTHSSELKAAIPFTPWQPDGDFSDVTVPTLIIAGEIDRVAPVNDHAWPHYQSLSASNPRLYLEIRGGNHFIANTAT [TEP038]”, the PET hydrolysis in data set [1] (40 °C, pH 4.5) is less than 3; in data set [1] (40 °C, pH 5.5) it was less than 3; in data set [1] (40 °C, pH 6.5) it was less than 3; in data set [1] (40 °C, pH 7.5), less than 3. Besides, in data set [2], the “purified protein yield per well” value turned out to be 52.1 µg.
As to “TAGAEPSGGAPAAGGSGCGDVADPAAQGPLHVQTYSSGLRDGPDYGSQTMHYPTDGAPPYPALVIVPGFMSLESSIADHGPHFASHGIVTLTIGTNSTMDQPPARSEALLDALETIRAEHTRAGGPLEGKLDLSRLGVMGWSMGGGGTLITVDDHPELKAAITLCAWNPGQTYRNNQVPTLLFAGTADTLAGG [TEP195]”, the PET hydrolysis in data set [1] (40 °C, pH 4.5) is less than 3; in data set [1] (40 °C, pH 5.5), less than 3; in data set [1] (40 °C, pH 6.5) it was less than 3; in data set [1] (40 °C, pH 7.5), less than 3. The “purified protein yield per well” value in data set [2] was found to be 30.1 µg.

For the origin of these results see the supplement of paper PMC12455559.
